Test results published in patent US20260250361A1 (HUAHUI HEALTH, published 2026).
Changes are numbered by the printed parent chain.

Assays:
human FcRn [1] = biological target: T1, human FcRn (human, UniProt P55899 24-297; P61769 21-119); test: Biacore (SPR): hFcRn amine-coupled on a CM5 chip, antibody as mobile phase, pH 6.0, 1:1 Langmuir fit
T1 construct: beta-2-microglobulin is not mentioned; also called hFcRn; recombinantly expressed hFcRn
Method: (§1) The affinity was then calculated by fitting the data using a 1:1 Langmuir binding model.

human FcRn [2] = biological target: T1, human FcRn; test: Biacore; hFcRn amine-coupled on CM5 chip, antibody in mobile phase, pH 6.0, 1:1 Langmuir fit
Method: as §1

[3] = biological target: T2, antigen peptide NC36b (pre-S1); test: ELISA on the antigen peptide NC36b (Pre-S1), panel title 'Binding to PreS1'
T2 construct: Synthesised by Beijing Zhongke Yaguang Biotechnology; also called target antigen Pre-S1

hFcγRIIb [4] = biological target: T3, hFcγRIIb (human, UniProt P31994 43-217); test: Biacore; ratio against A14 WT
T3 construct: also called hFcγR2b
T3 sequence: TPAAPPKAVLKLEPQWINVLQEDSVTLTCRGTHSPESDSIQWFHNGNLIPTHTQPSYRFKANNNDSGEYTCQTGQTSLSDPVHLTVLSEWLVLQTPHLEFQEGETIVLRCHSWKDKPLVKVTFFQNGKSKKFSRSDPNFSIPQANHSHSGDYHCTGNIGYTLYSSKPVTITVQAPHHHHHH
Method: (§2) Different concentrations of recombinant hFcγR were used as the mobile phase over the flow path to allow binding and dissociation with the antibodies on the chip at pH 7.0. The affinity was then calculated by fitting the data using a 1:1 Langmuir binding model.

hFcγRIIIa (V158) [5] = biological target: T4, hFcγRIIIa (V158) (human, UniProt P08637 17-208); test: Biacore; ratio against A14 WT
T4 construct: V at position 158; also called hFcγR3a V158
T4 sequence (P08637 other isoform, or with tags, fused parts or gaps): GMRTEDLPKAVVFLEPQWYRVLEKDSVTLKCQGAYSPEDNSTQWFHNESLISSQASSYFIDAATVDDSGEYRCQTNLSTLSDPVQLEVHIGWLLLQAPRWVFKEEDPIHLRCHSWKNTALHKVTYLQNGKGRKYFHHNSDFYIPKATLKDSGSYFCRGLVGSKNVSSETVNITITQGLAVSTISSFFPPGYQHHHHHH
Method: as §2

hFcγRIIIa (F158) [6] = biological target: T5, hFcγRIIIa (F158) (human, UniProt P08637 17-208); test: Biacore; ratio against A14 WT
T5 construct: F at position 158; also called hFcγR3a F158
T5 sequence (P08637 other isoform, or with tags, fused parts or gaps): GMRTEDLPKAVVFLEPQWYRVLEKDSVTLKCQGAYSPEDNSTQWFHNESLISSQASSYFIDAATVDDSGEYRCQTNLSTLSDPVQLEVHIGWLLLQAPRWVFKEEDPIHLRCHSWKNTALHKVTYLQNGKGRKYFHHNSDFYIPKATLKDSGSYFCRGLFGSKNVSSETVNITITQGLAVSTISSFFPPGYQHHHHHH
Method: as §2

hFcγRIIa (H131) [7] = biological target: T6, hFcγRIIa (H131) (human, UniProt P12318 34-217); test: Biacore; ratio against A14 WT
T6 construct: also called hFcγR2a H131
T6 sequence: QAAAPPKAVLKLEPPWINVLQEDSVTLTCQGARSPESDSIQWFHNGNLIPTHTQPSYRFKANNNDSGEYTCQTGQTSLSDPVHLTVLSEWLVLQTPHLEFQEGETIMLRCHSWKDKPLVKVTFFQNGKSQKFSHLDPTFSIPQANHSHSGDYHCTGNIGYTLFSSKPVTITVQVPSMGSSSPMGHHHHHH
Method: as §2

hFcγRIIa (R131) [8] = biological target: T7, hFcγRIIa (R131) (human, UniProt P12318 34-217); test: Biacore; ratio against A14 WT
T7 construct: also called hFcγR2a R131
T7 sequence: T6 sequence with H134R
Method: as §2

hFcγRIa [9] = biological target: T8, hFcγRIa (human, UniProt P12314 16-288, limits assumed); test: Biacore; ratio against A14 WT
T8 construct: Recombinant, Ni column purified; also called hFcγR1a; human FcγRI
T8 sequence (P12314 other isoform, or with tags, fused parts or gaps limits assumed): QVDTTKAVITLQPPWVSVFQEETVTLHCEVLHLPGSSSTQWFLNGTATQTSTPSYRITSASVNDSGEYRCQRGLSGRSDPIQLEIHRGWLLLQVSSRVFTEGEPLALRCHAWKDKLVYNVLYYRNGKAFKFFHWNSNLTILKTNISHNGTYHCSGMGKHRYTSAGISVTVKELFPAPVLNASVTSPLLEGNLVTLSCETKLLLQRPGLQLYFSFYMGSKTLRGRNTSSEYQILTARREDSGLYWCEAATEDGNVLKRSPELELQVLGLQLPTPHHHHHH
Method: as §2

hFcγRIIb [10] = biological target: T3, hFcγRIIb; test: Biacore; antibody captured on Protein G CM5 chip, hFcγR in mobile phase, pH 7.0, 1:1 Langmuir fit
Method: as §2

hFcγRIIIa (V158) [11] = biological target: T4, hFcγRIIIa (V158); test: as above
Method: as §2

hFcγRIIIa (F158) [12] = biological target: T5, hFcγRIIIa (F158); test: as above
Method: as §2

hFcγRIIa (H131) [13] = biological target: T6, hFcγRIIa (H131); test: as above
Method: as §2

hFcγRIIa (R131) [14] = biological target: T7, hFcγRIIa (R131); test: as above
Method: as §2

hFcγRIa [15] = biological target: T8, hFcγRIa; test: as above
Method: as §2

[16] = biological target: T9, FcγRIIa R131 on Jurkat/NFAT-luc2p/FcγRIIa R131 cells (UniProt P12318 34-317); test: cell-based or functional assay
T9 sequence (looked up): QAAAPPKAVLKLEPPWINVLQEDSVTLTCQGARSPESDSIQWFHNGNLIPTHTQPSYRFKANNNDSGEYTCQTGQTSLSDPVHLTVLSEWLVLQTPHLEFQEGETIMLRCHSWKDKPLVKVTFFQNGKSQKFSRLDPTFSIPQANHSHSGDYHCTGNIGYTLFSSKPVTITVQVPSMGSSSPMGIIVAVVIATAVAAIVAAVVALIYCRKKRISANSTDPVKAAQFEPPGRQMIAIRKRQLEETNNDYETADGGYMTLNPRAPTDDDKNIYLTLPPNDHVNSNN

[17] = biological target: Pre-S1 domain of the L protein on recombinant HBV D genotype virus (hepatitis B virus, D genotype); test: cell-based or functional assay
[18] = biological target: FcγRIIIa F158 on Jurkat/NFAT-luc2p/FcγRIIIa F158 cells (UniProt P08637 17-254, limits assumed); test: cell-based or functional assay

T1 sequence (P55899 24-297 limits assumed, chain 1 of 2): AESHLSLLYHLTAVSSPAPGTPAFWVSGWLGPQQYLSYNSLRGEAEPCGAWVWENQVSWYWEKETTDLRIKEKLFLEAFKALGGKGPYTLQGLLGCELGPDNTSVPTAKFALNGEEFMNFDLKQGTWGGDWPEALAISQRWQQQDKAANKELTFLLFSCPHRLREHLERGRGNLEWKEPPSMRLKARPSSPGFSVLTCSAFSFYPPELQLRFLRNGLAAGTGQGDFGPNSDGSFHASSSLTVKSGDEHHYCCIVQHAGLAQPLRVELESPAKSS
T1 sequence (P61769 21-119 limits assumed, chain 2 of 2): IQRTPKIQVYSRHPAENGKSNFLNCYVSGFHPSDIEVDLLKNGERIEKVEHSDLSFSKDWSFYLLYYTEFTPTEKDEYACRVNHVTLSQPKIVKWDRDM

B1: afuco-A14 GA LS (antibody, human IgG1, lambda)
heavy: QVQLQQSGPGLVKPSQTLSLTCAISGDSVSSNSAAWNWIRQSPSRGLEWLGRTYYRSKWYNDYAVSVKSRITINPDTSKNQFSLQLNSVTPEDTAVYYCARGTRWGMDVWGQGTLVTVSSASTKGPSVFPLAPSSKSTSGGTAALGCLVKDYFPEPVTVSWNSGALTSGVHTFPAVLQSSGLYSLSSVVTVPSSSLGTQTYICNVNHKPSNTKVDKKVEPKSCDKTHTCPPCPAPELLAGPSVFLFPPKPKDTLMISRTPEVTCVVVDVSHEDPEVKFNWYVDGVEVHNAKTKPREEQYNSTYRVVSVLTVLHQDWLNGKEYKCKVSNKALPAPIEKTISKAKGQPREPQVYTLPPSRDELTKNQVSLTCLVKGFYPSDIAVEWESNGQPENNYKTTPPVLDSDGSFFLYSKLTVDKSRWQQGNVFSCSVLHEALHSHYTQKSLSLSPGK
light: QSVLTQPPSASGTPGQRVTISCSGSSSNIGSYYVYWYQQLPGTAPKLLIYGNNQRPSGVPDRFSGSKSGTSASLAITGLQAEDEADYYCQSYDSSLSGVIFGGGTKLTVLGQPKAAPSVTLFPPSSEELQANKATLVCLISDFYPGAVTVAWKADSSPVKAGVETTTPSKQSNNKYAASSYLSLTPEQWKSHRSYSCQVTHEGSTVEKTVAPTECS
modifications: Afucosylated modification (expressed in Fut8-knockout FCC# cells)
notes: IgG1
B1 was tested, and the Kd (human FcRn [1]) was 6.46 nM, the “fold change in KD against A14 WT” value (human FcRn [2]) was 3.4 fold and the “EC50 (read off the curve)” value [3] was about 0.02 µg/mL. The “Fold (KD of A14 WT over KD of afuco-A14 GA LS)” value (hFcγRIIb [4]) was 0.76 fold, the “Fold (KD of A14 WT over KD of afuco-A14 GA LS)” value (hFcγRIIIa (V158) [5]) was 7.89 fold and the “Fold (KD of A14 WT over KD of afuco-A14 GA LS)” value (hFcγRIIIa (F158) [6]) was 11 fold. The “Fold (KD of A14 WT over KD of afuco-A14 GA LS)” value (hFcγRIIa (H131) [7]) was 4.63 fold, the “Fold (KD of A14 WT over KD of afuco-A14 GA LS)” value (hFcγRIIa (R131) [8]) was 3.83 fold and the “Fold (KD of A14 WT over KD of afuco-A14 GA LS)” value (hFcγRIa [9]) was 0.41 fold. For the same binder, the Kd (hFcγRIIb [10]) was 7470 nM, the Kd (hFcγRIIIa (V158) [11]) was 123 nM and the Kd (hFcγRIIIa (F158) [12]) was 588 nM. It also gave a Kd (hFcγRIIa (H131) [13]) of 169 nM, a Kd (hFcγRIIa (R131) [14]) of 204 nM and a Kd (hFcγRIa [15]) of 173 nM. For the same binder, the “ADCP activity, fold enhancement compared to A14 (Jurkat/NFAT-luc2p/FcγRIIa R131 reporter)” value [16] was at least 4.7 fold, the “IC50 of inhibition of HBV infection of HepG2-hNTCP cells (HBeAg secretion)” value [17] was about 0.011 µg/mL and the “ADCC activity, fold enhancement compared to A14 (Jurkat/NFAT-luc2p/FcγRIIIa F158 reporter)” value [18] was 18.6 fold.
